Test system: T1, COc1cc(CO)ccc1O
T1 construct: SUMO tag cleaved for crystals; non-covalent FAD
Assay: purified protein
Format: biochemical, Novosphingobium sp.
Settings: molecular oxygen as acceptor, 35 °C, 50 mM Tris-HCl pH 9.0, 300 mM NaCl

## nsVAO (vanillyl-alcohol oxidase from Novosphingobium sp.) (Novosphingobium sp.)
  Km: 207 ± 28 µM
  kcat: 0.29 ± 0.01 s⁻¹
  kcat/Km: 1400 M⁻¹ s⁻¹

## nsVAO (vanillyl-alcohol oxidase from Novosphingobium sp.) (Novosphingobium sp.; T181D)
  Km: 203 ± 22 µM
  kcat: 0.28 ± 0.01 s⁻¹
  kcat/Km: 1400 M⁻¹ s⁻¹

— article PMC7617285, “Dehydrogenase versus oxidase function: the interplay between substrate binding and flavin microenvironment” (ACS catalysis, 2025)
